Experimental data from the DeepSol protein solubility set.

Experiment: soluble on expression in E. coli; label from the status in PepcDB or PDB records

Row | Sequence | soluble on expression in E. coli
1 | MGSDKIHHHHHHMRIAVIGGGASGMVTAYLLDKQGHHITVFERQPMLGGHIRTLNKNVKPNQSDCNEMLESGVLEFPTVFHNFVALMQELGVELEPIRVGSALFPKDGSPFFSKVTNENNYTGIQRFIEYLRFDTIHTRSLGLWLKTRFAQMEDFYNRPLSQYVNNQSISNTWLKLLTMYSYSMPFELIDNFPAEMGIPMLRDYLAVKWLRIKGGVYSYIEKILERFQGEVLLNVEIVNISRSPDGVIIQRSHGEIQEFDKVVFATPPDQVIALLADPTEAEIKRFSDWKANYATTTIHTDIFMYDHHHIHHPSEFDFFQTDTQWGYNSCLNQLCGISSPQHYFLSFQLEELIAKDRIIHTQEHHTPLYTTESFRYRDEVVATNGENNTYYAGAYLGDGLHEGAIASAFRVAQLIGSPLAVSISGFNDRNADTVEIAADTAGIGKYLTHPRFHRS | not soluble
2 | MGESFTQAVVEGPQPKPSRFQFVPVPGEFTRGRWKCRDSYHPNAETLEFEKNKSKEEETNPDKISVFFKLRQQQQEPEPEPEPPQPPPQESTIQVTSVKSTRPDTGDPGDSEVVTTDSTESIIITRKNGVTIVRKTSNSLLLPDEKYDQIRQLSIDDFENKEKKQQVPPTPMNTPPASLAVVDTSIQSTTSETTPGHSSSRKPSKEDSSPFDASSATPAPSQLETPQQQKPTTTRHFQVEPVVLSEPSTPAPVAPAPSIETLTSTSPPVTQQLAPSLSEPTFQVIQTEESKNMSMDSVKNVVDAAALSAPAPAPLSQSDRLNHVDEVEGTTPSNVMITVSSAAAALEKKEEAAFAAAGSLDSCGIPISGGGAAAQTSAPHSTPYGTPKDTHIQQQQQPVVFEEILTANGPPPQPSSPLLPALITTTTSAPTIAPASSPIINASGSSIPAASTSGISLFPSGGVTSSLTTPSTTADTHTPIDNKIEQAMELVKTHLTYAVREEVDTLRNTIAELEYQMRESQYECTYYRQNCAPDLIEQASSFVHQQMASHQRPAARRAVSTAGIFDGSSSGGGGGQASSGASASASSAHMRNLQNQIQQMKQITPITTNTCINSTSTSTTAYTSTPTASIPAATAITTTTAPPKPSPTTSESSLITGDLGAPAGAVAQKMTTTNN | not soluble
3 | MEVKMPFVVFVKRSVRFPGKHSYMIGGKSLLEIIVSKLSNIGKVYVFTKDKDIICNGCSIEFDTTNGIITDSVLAAIDKFGTFFAVAGDMPLIKPELVSKMLSQYKGSPLFPRHMDGMLEPLFGIYTEDLYNALKEYLDKGGESLHAFLLTQPLQYYDIGSDDEVNFININYKSDIEKYRDLLVQLLEHHHHHH | soluble
4 | MSLKNELEFAKKLIDFIYDSPSPFHSVDNIKNTLIENGFAEIKEENKWELNKNGKYFVKRNDSALIAFTVGSGFVAKKGFKIIGGHTDSPTFRIKPNPEMVSENSYIKLNTEVYGGPILSTWFDRPLSIAGRVTVRGKSALFPETKLLNIKRPILVIPNLAIHMNRDVNSGFKINPQVDTLPIIGIINDKFEKENYLMKIIASELGEDIENIIDFDLFLYEYDKGCIMGINNEFISSSRLDDMEMVHAGLNALVNAKCSEATNVLACFDNEEIGSATKQGADSQFLSDILERIVLSFGGDREDFFRALHNSFMISSDSAHAVHPNKGEKADPITRPHINEGPVIKISAAQKYTSDSNSIAVYEEVCRLSGVPYQKFVNRSDERGGSTIGPITATHTAIRTVDIGTPLLAMHSIRELCGTLDHMYVEKSFEEFYNEGHHHHHH | soluble
5 | MKKIEVDLVRTKVYNLLKEMILNHELKLGEKLNVRELSEKLGISFTPVRDALLQLATEGLVKVVPRVGFFVTDVDEKFIRETIETRIMMEVFCLENYFDKIAGSEELLEIKGEIDDVEKSAKREIFDDSDERLHKLFIRASGNELIISLYEKIWDRIDLVRHLNERYVVSNREHKELIERIISGDKEGAIEKLKEHLKNVEAETIKNLYTYERS | soluble
6 | ASWSHPQFEKGAMSNYSMSRGHSDKCVGAEDILSEIKEAEKVLNAASDELKREGHNVKTFIDRTSTTQSANLNKIVNWHNANPADVHISVHLNAGKGTGVEVWYYAGDEKGRKLAVEISAKMAKALGLPNRGAKATKDLRFLNSTKGTAVLLEVCFVDRKEDANAIHKSGMYDKLGIAIAEGLTGKTVAAKNPNRHSGAVVDSVPMLSKMDFKSSPIKMYKAGSSLLVYEHNKYWYKAYINDKLCYIYKSFCISNGKKDAKGRIKVRIKSAKDLRIPVWNNTKLNSGKIKWYSPGTKLSWYDNKKGYLELWYEKDGWYYTANYFLK | soluble
7 | MRNVLKAETLERKFPLLSVENGCIVSKDADLTVAFEVELPELFTMTAAEYEAVHSSWVKAVKVLPDFSVVCKQDWFTKETYRPDFRDGEQSFLSKSYERHFNERPYLNHKCYLYLTKTTRERSRQRSDFNSLCCGSLLPKEMVDKDTAVRFLEAVEQFERIMNDSGHVSLRRLEADEITGTEGRPGLVEKYFSLSLEDETAVLQDICLNPGGMRVGDKRLCVHTLSDTEDLPVRVSTDMRYGRMSTDRSDCRLSFAAPVGLLLPCNHIYSQYVFIDDAQEILRTMEKTSRNMLSLSKYSRSNAVNREWTEMYLDEAHTKGVLPVRCHCNVMAWAEDREELRRVKNDTGSQLAMMECTPRHNTVDAPVLYWAGIPGNAGDFPAEESFYTFLEQAVCLFTAETNYRSSSSPFGIRMADRRNGIPLHVDISDLPMKRGIITNRNKFVLGPSGSGKSFFTNHLVRQYYEQGTHILLVDTGNSYQGLCRMIHDRTHGEDGIYITYEEDNPIAFNPFYTDSGQFDVEKRESIKTLILTLWKREDEAPKRSEEVALSGAVNAYIRRITDDRASRPDFNGFYEFVRDDYRRMIEQKKVREKDFDIDGFLNVLEPFYRGGDYDFLLNSDKELDLTNKRFIVFELDNISSNKVLLPVVTLIIMETFISKMRKLRGIRKMILIEECWKALMSANMSEYIKYLFKTVRKYFGEAVVVTQEVDDIISSDIVKEAIINNSDCKILLDQRKYMNKFEHIQKLLGLTEKERGQILSINRANRPGPFYREVWIGLGGTHSAVYATEVSAEEYAVRP | not soluble
8 | MGSDKIHHHHHHMSVAHENARRIISDILGKQNIERVWFVGCGGSLTGFWPGKYFLDCEASKLAVGYITSNEFVHATPKALGKNSVVILASQQGNTAETVAAARVAREKGAATIGLVYQPDTPLCEYSDYIIEYQWARYPETVDPAQQKAAYSLWLALEILAQTEGYAQYDELVSAFGRFSDVVHGAQRQVQEDAQRFAAEWKDEKVVYMMGSGPSFGAAHQESICILLEMQWINSASIHSGEYFHGPFEITEPGTPFILLQSSGRTRPLDDRAIRFIERYQGKLQLIDADKLGIQDLSTDVGEYFCGLLHNCVLDVYNLALATARNHPLTTRRYMWKVEY | not soluble
9 | AEPVKVGSKIDTEGALLGNMIQQVLESHGVKTINKIQLGTTPVVRGAIVAGELDIYPEYTGNGAFFFKDENDPAWKNAQQGYEKVKRLDQEKHQLVWLTPAPANNTWTIAVRQDLAEKNKLTSLADLSRYLKQGGEFKLAASAEFIERPDALPAFEKAYGFNLNQNQLLSLAGGDTAVTIKAAAQQTSGVNAAMAYGTDGPVAALGLQTLSDPQGVQPIYAPTPVVREAVLKAYPQIADWLQPVFASLDEKTLQQLNARIAVEGQDAKRVAADYLQQKGLLK | not soluble
10 | MSLANWVASSTVTADGHHLLGNPAAKLRLVEFVSYTCPHCSHFEIESEGQLKIGMVQPGKGAIEVRNFVRDPIDMTVALITNCVPPSRFFTLHTAFMRSQAQWIGPLANSTEAQRQRWFNGTFATRTRAIASDFRFYDFMAARGMDRSTLDRCLSNEALAKKLAAETDEAINQYNVSGTPSFMIDGILLAGTHDWASLRPQILARLNEGHHHHHH | soluble
11 | MMFDRETQVVDCRCGGGLGKGGGLAQRGTLSEAGRADVVAVAMSPGQRHITKPVCEITYGMRKENIQVSVLVLYSGSGIPESGMRTGSFVLSPVEVAQIEMHKLAVIHLGNIKDHVIRKTREILSQVDIPAIIVSQIPVDFEDFAEAGIKTRLVMPRDENIRTKGIVMDMVSGVTRGDSCPRDKLNLIVKYVKTTLDQLKDHKGVALEHHHHHH | soluble
12 | MVQISDLPRDLTEEVLSRIPVTSMRAVRFTCKKWNTLSKDRSFTKKHLRGARAAAKKKQTKEFQVIMMIQFRVYLYSVNLLNPSIERIGKLISLDVEDHVDISKIFHCGGLLLCITKDISRLVVWNPYSGQTRWIKPRNSYHRLDRYALGYEEKNKSCRCYKILRFMDDYEDDRALRLIREFEIYDLNSDSWKVVNVTPDWDVEFYHRGLSLKGNTYWFAQEKLPPLPRGRVITISDMADFLLCFDFTRERFGPRLPLPFHSFVEDTVTLSSVRDKKLAVLFQPCSASTVKIWISRKIEPNAVSWRKVFLAVDMKSLTGFQFDINAASFFVDEKKKVAMVLDKDRFSYKFTRNIAYIIGKKGYFEKVDLGESTVSSCASLVCSYVPSSVQI | soluble
13 | MTKPAKIGVLLANLGTPDSPTPKSISRYLWQFLTDPRVVDLPRCKWYPLLKAIILPLRSKRIAKNYQAIWTEQGSPLLAISRQQKDALQAYLDNQNIDTQVEIAMTYGNPSMQSAVKNLLKNQVERIIVLPLYPQYSSSTTGAVFDAFANALKEERGLLPFDFIHSYHIDENYINALADSIKVRLKSDEFLLFSYHGIPLRYEKMGDYYREHCKQTTIAVVNKLGLTENQWRMTFQSRFGREEWLQPYTDKFLESAAAQNIQKIAVICPGFSVDCLETIEEIDEENRENFLNNGGQSYQYIPALNVEHAHIEMMGKLILEKLT | not soluble
14 | MRAIYATDLSAASEAAIQNETCLECLGRIGVDTIHLVTVIPSNVHAGMPGMNFSKRREQGLTRYQNVMEDAGFDTETHVVRGTPHRRINGIAEAEKADVTIIGSRGQSPLNNRVIGSTARNLARTTVVPLLVNRIERSTDEPDVLREHLFQRVLYATDFSENATRAFDAFQYLRHATQEATLVHVESPKDATSEADPAEQLASLADTLSQWDIETNVEVRRGDPAEEILDVEAAVTPTTTLVGSRGQSRMRRLLLGSVSEDIIAQATGNVYLVPPPRTA | not soluble
15 | MKINIRDSTMVRPATETPITNLWNSNVDLVIPRFHTPSVYFYRPTGASNFFDPQVMKEALSKALVPFYPMAGRLKRDDDGRIEIDCNGAGVLFVVADTPSVIDDFGDFAPTLNLRQLIPEVDHSAGIHSFPLLVLQVTFFKCGGASLGVGMQHHAADGFSGLHFINTWSDMARGLDLTIPPFIDRTLLRARDPPQPAFHHVEYQPAPSMKIPLDPSKSGPENTTVSIFKLTRDQLVALKAKSKEDGNTVSYSSYEMLAGHVWRSVGKARGLPNDQETKLYIATDGRSRLRPQLPPGYFGNVIFTATPLAVAGDLLSKPTWYAAGQIHDFLVRMDDNYLRSALDYLEMQPDLSALVRGAHTYKCPNLGITSWVRLPIYDADFGWGRPIFMGPGGIPYEGLSFVLPSPTNDGSLSVAIALQSEHMKLFEKFLFEI | soluble
16 | VIRIGTRGSLLATTQAATVRDALIAGGHSAELVTISTEGDRSMAPIASLGVGVFTTALREAMEAGLVDAAVHSYKDLPTAADPRFTVAAIPPRNDPRDAVVARDGLTLGELPVGSLVGTSSPRRAAQLRALGLGLEIRPLRGNLDTRLNKVSSGDLDAIVVARAGLARLGRLDDVTETLEPVQMLPAPAQGALAVECRAGDSRLVAVLAELDDADTRAAVTAERALLADLEAGCSAPVGAIAEVVESIDEDGRVFEELSLRGCVAALDGSDVIRASGIGSCGRARELGLSVAAELFELGARELMWGVRH | not soluble
17 | MYYPFVRKALFQLDPERAHEFTFQQLRRITGTPFEALVRQKVPAKPVNCMGLTFKNPLGLAAGLDKDGECIDALGAMGFGSIEIGTVTPRPQPGNDKPRLFRLVDAEGLINRMGFNNLGVDNLVENVKKAHYDGVLGINIGKNKDTPVEQGKDDYLICMEKIYAYAGYIAINISSPNTPGLRTLQYGEALDDLLTAIKNKQNDLQAMHHKYVPIAVKIAPDLSEEELIQVADSLVRHNIDGVIATNTTLDRSLVQGMKNCDQTGGLSGRPLQLKSTEIIRRLSLELNGRLPIIGVGGIDSVIAAREKIAAGASLVQIYSGFIFKGPPLIKEIVTHI | soluble
